# Experimental data reported in publication PMC12153344, “Deciphering the role of accessory proteins in Arabidopsis chloroplast editosomes via interaction with a synthetic PPR-PLS factor in E. coli”.
# T1: dsn3PLS-DYW (synthetic construct (design of Royan et …, UniProt UPI0040747504 1-612))
# T1 chain: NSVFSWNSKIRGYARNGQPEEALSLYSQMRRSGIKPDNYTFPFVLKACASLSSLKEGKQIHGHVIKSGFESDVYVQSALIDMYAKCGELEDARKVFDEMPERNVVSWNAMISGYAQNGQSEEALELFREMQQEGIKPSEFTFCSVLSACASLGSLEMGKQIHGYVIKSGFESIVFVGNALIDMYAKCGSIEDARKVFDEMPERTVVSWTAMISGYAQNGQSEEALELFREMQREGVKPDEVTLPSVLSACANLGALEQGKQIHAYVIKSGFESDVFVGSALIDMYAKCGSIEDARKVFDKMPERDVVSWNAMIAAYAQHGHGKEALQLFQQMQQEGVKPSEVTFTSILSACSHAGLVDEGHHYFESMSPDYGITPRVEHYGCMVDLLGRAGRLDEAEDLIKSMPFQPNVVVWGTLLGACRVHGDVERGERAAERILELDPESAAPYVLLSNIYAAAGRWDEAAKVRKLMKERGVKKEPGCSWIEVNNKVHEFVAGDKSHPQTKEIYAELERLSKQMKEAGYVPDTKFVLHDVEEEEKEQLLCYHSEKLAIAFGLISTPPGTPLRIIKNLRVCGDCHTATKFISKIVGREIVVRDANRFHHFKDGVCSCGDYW
# T2: MBP-ORRM1 (Arabidopsis, UniProt Q8L440 55-374)
# T2 sequence: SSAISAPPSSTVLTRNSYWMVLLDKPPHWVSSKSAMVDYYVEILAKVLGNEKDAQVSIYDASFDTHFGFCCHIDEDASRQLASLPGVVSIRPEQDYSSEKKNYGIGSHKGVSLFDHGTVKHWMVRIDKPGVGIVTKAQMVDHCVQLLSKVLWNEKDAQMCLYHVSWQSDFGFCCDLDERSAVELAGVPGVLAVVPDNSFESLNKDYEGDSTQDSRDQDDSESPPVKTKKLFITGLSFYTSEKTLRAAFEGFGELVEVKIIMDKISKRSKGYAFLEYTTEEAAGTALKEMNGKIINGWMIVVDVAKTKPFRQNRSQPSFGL
# B1: rpoA_REMSA (ssRNA)
# RNA: AUGUAUUACACGUGCAAAAUCUGAGA
# What was measured:
# dsn3PLS-DYW = target: T1, dsn3PLS-DYW; test: EMSA; dsn3PLS-DYW alone; Kd estimated, value only in figure; REMSA following Royan et al. (2021), binding buffer, pH and temperature not given in the material; proteins stored in 25 mM Tris-HCl pH 7.2, 250 mM NaCl, 20% glycerol, 0.5 mM EDTA, 1 mM DTT; conditions: protein: recombinant; tags: N-terminal thioredoxin (109 aa)-6xHis, 133 aa tag in total (pETM20); label: 5'-Cy5; single strand
# MBP-ORRM1 = target: T2, MBP-ORRM1; test: EMSA; MBP-ORRM1; no shift after many purification attempts; REMSA following Royan et al. (2021), binding buffer, pH and temperature not given in the material; proteins stored in 25 mM Tris-HCl pH 7.2, 250 mM NaCl, 20% glycerol, 0.5 mM EDTA, 1 mM DTT; conditions: protein: recombinant; tags: N-terminal MBP; label: 5'-Cy5; single strand
binder,measurement,setting,value
B1,binding result,dsn3PLS-DYW,binds
same,binding result,MBP-ORRM1,no binding
